The text below walks through data of patent US20240066100A1.

In experiment [1] the target is human IL-18BP (amino acids 31-194), biotinylated (human) (UniProt O95998). Description: yeast display binding. To be noted: ligand.
Target sequence in this assay (O95998 other isoform, or with tags, fused parts or gaps): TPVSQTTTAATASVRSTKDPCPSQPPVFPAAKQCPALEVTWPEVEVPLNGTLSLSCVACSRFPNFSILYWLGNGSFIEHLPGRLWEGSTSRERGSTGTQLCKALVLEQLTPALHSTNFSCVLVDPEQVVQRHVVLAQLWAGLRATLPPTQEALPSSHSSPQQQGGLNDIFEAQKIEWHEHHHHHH
Experiment [2] has the same target. The experiment can be described thus: SPR. For orientation: SPR reads the build-up and loss of mass on a sensor chip optically.
Experiment [3] has the same target. Description: SPR; KD IL-18BP / KD IL-18Rα normalized to WT IL-18.
Target sequence in this assay (O95998 other isoform, or with tags, fused parts or gaps limits assumed, form in doubt): as the sequence (O95998 other isoform, or with tags, fused parts or gaps) above
Experiment [4] shares this target. The experiment can be described thus: SPR, biotinylated receptor on streptavidin capture chip, IL-18 as free analyte.
Target sequence in this assay (O95998 other isoform, or with tags, fused parts or gaps limits assumed, form in doubt): as the sequence (O95998 other isoform, or with tags, fused parts or gaps) above
The target is the same in experiment [5]. The experiment can be described thus: SPR, representative sensorgram, immobilized biotinylated hIL-18BP.
Target sequence in this assay (O95998 other isoform, or with tags, fused parts or gaps limits assumed, form in doubt): as the sequence (O95998 other isoform, or with tags, fused parts or gaps) above
Experiment [6] shares this target. Description: SPR, Biacore T100; hIL-18BP as surface ligand; Exp 2.
Target sequence in this assay (O95998 other isoform, or with tags, fused parts or gaps limits assumed, form in doubt): as the sequence (O95998 other isoform, or with tags, fused parts or gaps) above
The target is the same in experiment [7]. The experiment can be described thus: SPR, apparent KD.
Target sequence in this assay (O95998 other isoform, or with tags, fused parts or gaps limits assumed, form in doubt): as the sequence (O95998 other isoform, or with tags, fused parts or gaps) above
Experiment [8] shares this target. Description: SPR, Biacore T100; biotinylated receptor on chip, IL-18 as analyte.
Target sequence in this assay (O95998 other isoform, or with tags, fused parts or gaps limits assumed, form in doubt): as the sequence (O95998 other isoform, or with tags, fused parts or gaps) above
The target is the same in experiment [9]. The experiment can be described thus: on-yeast binding isotherm, flow cytometry.
Experiment [10] has the same target. Description: SPR, Biacore T100.
Experiment [11] has the same target. The experiment can be described thus: SPR, Biacore T100; hIL-18BP as surface ligand; Exp 1.
Experiment [12] shares this target. Description: SPR, Biacore T100; hIL-18BP as surface ligand, IL-18 as analyte.

wild-type human Interleukin-18 (mature form), sequence (Q14116 37-193): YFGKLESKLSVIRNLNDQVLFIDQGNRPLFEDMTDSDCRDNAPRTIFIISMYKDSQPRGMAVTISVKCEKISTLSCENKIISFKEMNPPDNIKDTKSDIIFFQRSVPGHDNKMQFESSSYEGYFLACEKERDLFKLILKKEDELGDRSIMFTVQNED

In [1], “human decoy-to-the-decoy (D2D) IL-18 variant SEQ ID NO: 99 (from UniProt Q14116 38-193)” returned a Kd of 4.8 nM.
As for “human decoy-to-the-decoy (D2D) IL-18 consensus variant SEQ ID NO: 125 (from UniProt Q14116 37-193)”, the Kd in experiment [1] is 8.9 nM.
Turning to “human decoy-to-the-decoy (D2D) IL-18 variant SEQ ID NO: 98 (from UniProt Q14116 38-193)”, the Kd in experiment [1] was found to be 5.4 nM.
For the substance “wild-type human Interleukin-18 (mature form) (from UniProt Q14116 37-193)”, the Kd in experiment [2] (ligand) was 0.6 nM; in [1], 2.1 nM.
Regarding “wild-type human Interleukin-18 (mature form) (from UniProt Q14116 37-193) (ligand)”, the IL-18 BP:Rα Dissociation Constant Ratio in [3] was found to be 1. Moreover, the Kd in experiment [4] is less than 1 nM; in [5], 0.002 nM; in [2] it was 0.002 nM; in [6], 0.00043 nM; in experiment [7] it was less than 0.1 nM; in experiment [8] it was 0.0019 nM. The Kd in experiment [9] came out at 7.08 nM; in experiment [11] it was 0.000694 nM. Moreover, the Dissociation Constant Ratio normalized to WT IL-18 in experiment [9] and in [10] was 1 each time. The KD ratio IL-18BP/IL-18Rα in experiment [9] was 0.295; in experiment [10], 0.000648. In addition, in [12], the koff (usually a measure of how fast the partners let go of each other) came to 2.23e-07 s⁻¹. Moreover, the kon (commonly a measure of how fast the partners come together) in experiment [12] stood at 518000 M⁻¹ s⁻¹.
“human decoy-to-the-decoy (D2D) IL-18 consensus variant SEQ ID NO: 123 (from UniProt Q14116 37-193)” returned a Kd in [1] of 5.9 nM.
The substance “human decoy-to-the-decoy (D2D) IL-18 variant SEQ ID NO: 120 (from UniProt Q14116 37-193)” came in with a Kd in [1] of 4.2 nM.
As to “human decoy-to-the-decoy (D2D) IL-18 variant SEQ ID NO: 101 (from UniProt Q14116 37-193)”, the Kd in experiment [1] came to 8.8 nM.
In experiment [1], “human decoy-to-the-decoy (D2D) IL-18 consensus variant SEQ ID NO: 124 (from UniProt Q14116 37-193)” showed a Kd of 7.9 nM.
The substance “human decoy-to-the-decoy (D2D) IL-18 variant SEQ ID NO: 94 (from UniProt Q14116 38-193)” had a Kd in experiment [1] of 6.4 nM.
